# Measurements published in the supplement of paper PMC9112550, “Optimization of the antimicrobial peptide Bac7 by deep mutational scanning” (BMC Biology, 2022).
# System: Escherichia coli TOP10
# Assay: shrunken log2 fold change of peptide-encoding DNA abundance (4.5 h post-induction vs induction); higher = less antimicrobial activity (less host growth inhibition)
# Settings: time post-induction: 4.5 h; library: site-saturation at positions 5, 18, 19, 20
# 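Also: peptides expressed intracellularly from a pBAD plasmid library in pooled LB shake-flask culture, induced with 0.3% L-arabinose, DNA abundance read by NGS, three biological replicates, DESeq2 with apeglm shrinkage.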
row,Sequence,shrunken log2 fold change
1,RRIRKRPPRLPRPRPRPPMGPRP,0.185
2,RRIRCRPPRLPRPRPRPSKCPRP,-0.266
3,RRIRGRPPRLPRPRPRPKIDPRP,0.372
4,RRIRHRPPRLPRPRPRPDAKPRP,-0.0555
5,RRIRGRPPRLPRPRPRPKAHPRP,0.625
6,RRIRCRPPRLPRPRPRPWMSPRP,-0.824
7,RRIRVRPPRLPRPRPRPSWFPRP,-0.262
8,RRIRARPPRLPRPRPRPLGTPRP,0.407
9,RRIRKRPPRLPRPRPRPCESPRP,-0.0138
10,RRIRDRPPRLPRPRPRPCDTPRP,-0.157
11,RRIRHRPPRLPRPRPRPVGVPRP,-0.00247
12,RRIRRRPPRLPRPRPRPFLIPRP,1.61
13,RRIRGRPPRLPRPRPRPIKSPRP,0.326
14,RRIRPRPPRLPRPRPRPFPSPRP,0.0138
15,RRIRWRPPRLPRPRPRPCICPRP,0.16
16,RRIRQRPPRLPRPRPRPAAWPRP,0.245
17,RRIRGRPPRLPRPRPRPDYSPRP,-0.0453
18,RRIRTRPPRLPRPRPRPGHVPRP,-0.144
19,RRIRLRPPRLPRPRPRPFYAPRP,-0.279
20,RRIRDRPPRLPRPRPRPYEIPRP,-0.0176
21,RRIRIRPPRLPRPRPRPMAFPRP,-0.0587
22,RRIRERPPRLPRPRPRPYGFPRP,-0.382
23,RRIRQRPPRLPRPRPRPKTTPRP,-0.636
24,RRIRPRPPRLPRPRPRPIDDPRP,0.00554
25,RRIRLRPPRLPRPRPRPPSSPRP,1.86

row,Sequence,shrunken log2 fold change
1,RRIRTRPPRLPRPRPRPMWDPRP,0.00971
2,RRIRQRPPRLPRPRPRPDRLPRP,-0.0692
3,RRIRMRPPRLPRPRPRPLHMPRP,-0.0934
4,RRIRARPPRLPRPRPRPPSLPRP,0.513
5,RRIRGRPPRLPRPRPRPSNPPRP,0.14
6,RRIRCRPPRLPRPRPRPGYAPRP,0.085
7,RRIRTRPPRLPRPRPRPAWMPRP,0.307
8,RRIRIRPPRLPRPRPRPPPCPRP,0.0616
9,RRIRKRPPRLPRPRPRPLGCPRP,0.659
10,RRIRIRPPRLPRPRPRPMQNPRP,0.112
11,RRIRKRPPRLPRPRPRPTKIPRP,0.269
12,RRIRCRPPRLPRPRPRPGDNPRP,-0.125
13,RRIRCRPPRLPRPRPRPTSSPRP,-0.11
14,RRIRKRPPRLPRPRPRPEKSPRP,0.0144
15,RRIRWRPPRLPRPRPRPGKWPRP,0.202
16,RRIRLRPPRLPRPRPRPNFMPRP,-0.117
17,RRIRDRPPRLPRPRPRPFGFPRP,-0.0238
18,RRIRKRPPRLPRPRPRPIPGPRP,-0.0379
19,RRIRWRPPRLPRPRPRPRWFPRP,0.999
20,RRIRVRPPRLPRPRPRPQKAPRP,-0.0576
21,RRIRCRPPRLPRPRPRPLNYPRP,0.101
22,RRIRHRPPRLPRPRPRPPGFPRP,0.011
23,RRIRTRPPRLPRPRPRPSIYPRP,-0.513
24,RRIRDRPPRLPRPRPRPNWYPRP,-0.476
25,RRIRPRPPRLPRPRPRPRLTPRP,0.293

row,Sequence,shrunken log2 fold change
1,RRIRERPPRLPRPRPRPLNNPRP,-0.705
2,RRIRRRPPRLPRPRPRPWPDPRP,0.0719
3,RRIRCRPPRLPRPRPRPWIYPRP,-0.821
4,RRIRRRPPRLPRPRPRPMTVPRP,-0.238
5,RRIRMRPPRLPRPRPRPARFPRP,0.251
6,RRIRPRPPRLPRPRPRPCEVPRP,0.00799
7,RRIRDRPPRLPRPRPRPCKTPRP,-0.0377
8,RRIRDRPPRLPRPRPRPEILPRP,-0.101
9,RRIRERPPRLPRPRPRPIQDPRP,0.876
10,RRIRFRPPRLPRPRPRPNYKPRP,-0.735
11,RRIRIRPPRLPRPRPRPQWPPRP,0.238
12,RRIRGRPPRLPRPRPRPEERPRP,0.55
13,RRIRARPPRLPRPRPRPNFEPRP,0.356
14,RRIRARPPRLPRPRPRPLDCPRP,0.49
15,RRIRFRPPRLPRPRPRPYNAPRP,-0.714
16,RRIRRRPPRLPRPRPRPKHYPRP,0.227
17,RRIRHRPPRLPRPRPRPTGQPRP,0.0378
18,RRIRLRPPRLPRPRPRPNVRPRP,-0.00281
19,RRIRHRPPRLPRPRPRPTCFPRP,0.0654
20,RRIRKRPPRLPRPRPRPDKIPRP,0.0555
21,RRIRMRPPRLPRPRPRPIPAPRP,0.788
22,RRIRMRPPRLPRPRPRPILAPRP,0.261
23,RRIRNRPPRLPRPRPRPMFCPRP,0.0294
24,RRIRVRPPRLPRPRPRPHQDPRP,-0.264
25,RRIRNRPPRLPRPRPRPEMVPRP,-0.0225
